In US20190194324A1 (published 2019) one finds Kd data, which are given here for 2 molecules.

The target of assay [1] is T1, α-syn-biotin monomer (mouse, UniProt O55042 1-140). The experiment in a line: cell surface binding (SH-SY5Y); LAG3* (no Triton).
Assay [2] deals with α-syn-biotin PFF (biotin-labelled α-synuclein pre-formed fibrils) (mouse, UniProt O55042 1-140). Kind of assay: cell surface binding (SH-SY5Y).
For assay [3], the target named is T1, α-syn-biotin monomer. The experiment in a line: cell surface binding (SH-SY5Y).

B1: LAG3 overexpressed in transfected cells (SH-SY5Y; HEK293FT) (receptor)
chain: LQPGAEVPVVWAQEGAPAQLPCSPTIPLQDLSLLRRAGVTWQHQPDSGPPAAAPGHPLAPGPHPAAPSSWGPRPRRYTVLSVGPGGLRSGRLPLQPRVQLDERGRQRGDFSLWLRPARRADAGEYRAAVHLRDRALSCRLRLRLGQASMTASPPGSLRASDWVILNCSFSRPDRPASVHWFRNRGQGRVPVRESPHHHLAESFLFLPQVSPMDSGPWGCILTYRDGFNVSIMYNLTVLGLEPPTPLTVYAGAGSRVGLPCRLPAGVGTRSFLTAKWTPPGGGPDLLVTGDNGDFTLRLEDVSQAQAGTYTCHIHLQEQQLNATVTLAIITVTPKSFGSPGSLGKLLCEVTPVSGQERFVWSSLDTPSQRSFSGPWLEAQEAQLLSQPWQCQLYQGERLLGAAVYFTELSSPGAQRSGRAPGALPAGHLLLFLILGVLSLLLLVTGAFGFHLWRRQWRPRRFSALEQGIHPPQAQSKIEELEQEPEPEPEPEPEPEPEPEPEQL
For the molecule B1, in assay [1], the Kd – broadly, a measure of binding affinity in units of concentration – was more than 3 µM.

B2: LAG3 (protein)
chain: MWEAQFLGLLFLQPLWVAPVKPLQPGAEVPVVWAQEGAPAQLPCSPTIPLQDLSLLRRAGVTWQHQPDSGPPAAAPGHPLAPGPHPAAPSSWGPRPRRYTVLSVGPGGLRSGRLPLQPRVQLDERGRQRGDFSLWLRPARRADAGEYRAAVHLRDRALSCRLRLRLGQASMTASPPGSLRASDWVILNCSFSRPDRPASVHWFRNRGQGRVPVRESPHHHLAESFLFLPQVSPMDSGPWGCILTYRDGFNVSIMYNLTVLGLEPPTPLTVYAGAGSRVGLPCRLPAGVGTRSFLTAKWTPPGGGPDLLVTGDNGDFTLRLEDVSQAQAGTYTCHIHLQEQQLNATVTLAIITVTPKSFGSPGSLGKLLCEVTPVSGQERFVWSSLDTPSQRSFSGPWLEAQEAQLLSQPWQCQLYQGERLLGAAVYFTELSSPGAQRSGRAPGALPAGHLLLFLILGVLSLLLLVTGAFGFHLWRRQWRPRRFSALEQGIHPPQAQSKIEELEQEPEPEPEPEPEPEPEPEPEQL
Take B2: the Kd in assay [2] was 0.077 µM; in assay [3], more than 3 µM.
